Sequences and labels used below:
B1: 1G7-IgG1-SI (antibody, V domains shown)
VH: QVQLVESGGGVVRPGGSLRLSCTASGFTFDDYGMTWVRQAPGKGLEWVSGINWNGGSTGYADSVKGRFTISRDNAKNSLFLQMNSLRAEDTALYYCARDQGIAVVGTHYYYYYGMDVWGQGTAVTVSS
VL: EIVLTQSPATLSLSPGERATLSCRASQSFSSYLAWYQQKPGQAPRLLIFDTSNRATGIPARFSGSGSGTDFTLTISSLEPEDFAVYYCQQRSNWPLTFGGGTKVEIK
B2: 7B9-IgG1-SI (antibody, V domains shown)
VH: EVQLVESGGGVVQPGGSLRLSCAASGFTFDDYAMHWVRQAPGKGLEWVSLISGDDGSTYYADSMKGRITISRDNSKNSLYLQMNSLRTEDTAMYYCAKASYGSGSYLYNYGMDVWGQGTTVTVFS
VL: DIQLTQSPSSLSASVGDRVTITCQASQDIINYLNWYQQKPGKAPKLLIYDTSNLETGVPSRFSGSGSGTDFAFTINSLQPEDIATYYCQQFVNLPLTFGGGTKVEIK
B3: P01264-IgG1-SI (antibody, V domains shown)
VH: EVQLVESGGGLVKPGGSLRLSCAASGFTFSNAWMNWVRQAPGKGLEWVGRIKSKTDGGTTDYAAPVKGRFTISRHDSKNTLYLQMNSLKTEDTAVYYCATDPRIAVTGTDYYYGMDVWGQGTTVTVSS
VL: DIVMTQTPSFLSASVGDRVTITCRASQDISNYLNWYQQKPGKAPKLLIYDASNLETGVPSRFSGSGSGTDFTFTISSLQPEDIATYYCQQYDNLPITFGQGTRLEIK
B4: 4F10-IgG1-SI (antibody, V domains shown)
VH: QVQLQESGPGLVKPSETLSLTCTVSGGSISNYYWSWIRQPPGKGLEWIGYIYYSGSTNYNPSLKSRVNISVDTSKSQVSLKLNSVIAADTAVYYCARHEDYWYFDLWGRGTLVTVSS
VL: DIQLTQSPSSLSASIRDRVTITCRASQDINNYLAWFQQKPGKAPKSLIYAVSSLESGVPSKFSGSGSGTDFTLTISSLQPEDFATYFCQQYNSYPFTFGPGTKVEIK
B5: 3A6-IgG1-SI (antibody, V domains shown)
VH: QVQLQESGPGMVKPSETLSLTCTVSGGSISYNYWSWIRQPPGKGLEWIGYIYHSGTTKYNPSLKSRVTMSVDTSKNHFSLKLNSVTAADTAVYYCARHEDYWFFDLWGRGTLVTVSS
VL: DIQMTQSPSSLSASVGDRVTITCRASQGISNYLVWFQQKPGKAPKSLIYAASILQSGVPSKFSGSGSGTDFTLTINSLQPEDFATYYCQQYNTYPFTFGPGTKVDIK

For the first assay, the target named is MED13L/HLA complex on MED13L-pulsed T2 cells (human). The experiment in a line: flow cytometry, T2 cells pulsed with 25 µM MED13L peptide, antibody 10 µg/mL.
Molecule B1 yielded a Percentage of Positive Cells (%) of 5.12%.
On the same count and under the same terms, under B2 stands 7.68%; under B3, 5.87%.
On the same count and under the same terms, the same measure for B4: 13.1%; for B5: 5.72%.

For a further assay, the target named is HLA-A2 on T2 cells without added peptide (human). In words: flow cytometry, T2 cells without peptide, antibody 10 µg/mL.
In turn, B1 displayed a Percentage of Positive Cells (%) of 5.32%.
Still for that read-out and setting: the same measure for B2: 4.66%.
Same read-out and setting: under B3 stands 4.65%; under B4, 7.67%.
On the same count and under the same terms, under B5 stands 5.77%.

The next assay addresses PIGQ/HLA complex on PIGQ-pulsed T2 cells (human). The experiment in a line: flow cytometry, T2 cells pulsed with 25 µM PIGQ peptide, antibody 10 µg/mL. In general terms: Flow cytometry measures light scatter and fluorescence of single cells or particles in a stream.
Molecule B1 returned a Percentage of Positive Cells (%) of 5.12%.
On the same count and under the same terms, under B2 stands 5.13%; under B3, 4.93%; under B4, 7.37%.
On the same count and under the same terms, under B5 stands 5.2%.

The values above are taken from US20260152571A1.
